This passage reports Kd, koff and kon results from paper PMC12501226.

The target in this assay is Recombinant SARS-CoV-1 spike protein 2P (residues 12-1193) (SARS-CoV-1) (UniProt P59594). Description: SPR.

For “ACE2 monomer (human extracellular ACE2 domain, residues 18-615, cut from ACE2-TEV-Fc) (from UniProt Q9BYF1 18-615) (domain or fragment)”, the Kd is 71 nM, the koff amounted to 0.0016 s⁻¹ and the kon is 170000 M⁻¹ s⁻¹.
